Experiment [1] deals with Fc part of the IgM protomer left after IgMBRAZOR cleavage (two mu chain fragments from Ala344 to the C-terminus) (human). Put plainly: SEC + native MS; online SEC-Orbitrap-based CDMS of IgM co-expressed with the J-chain, undigested or digested with IgMBRAZOR; sample in PBS, 0.5 μg injected; mobile phase 100 mM ammonium acetate pH 6.8; the oligomer is held by disulfide bonds.

Experiment [2] deals with Recombinant anti-StrepTag IgM protomer (two mu heavy chains and two kappa light chains). The experiment is described as above.

This is an account of results in PMC11157650.

Take “Fc part of the IgM protomer left after IgMBRAZOR cleavage (two mu chain fragments from Ala344 to the C-terminus) (domain or fragment)”: in experiment [1], the stoichiometry N came out at 5.

B1: Recombinant anti-StrepTag IgM protomer (two mu heavy chains and two kappa light chains) (antibody, V domains shown)
VH: EVQLEQSGPELVKPGASVKMSCKASGYTFTNYYMKWVKQSHGKSLEWIGDLNPNNGDTFYNQKFKGKATLTVDKSSNTAYMQLNSLTSEDSAVYYCARTGRYEENAMDYWGQGTSVTVSS
VL: ELVMTQSPASLAVSLGQRATISCRASESVDSYGKSFMHWYQLKPGQPPKLLIYRASNLESGVPARFSGSGSRTDFTLTIDPVEADDAATYYCQQNNEDPWTFGGGTKLEIK
With B1, in experiment [2], the stoichiometry N came to 5.
